In patent US20200164038A1, “MODIFIED NUCLEOSIDE, NUCLEOTIDE, AND NUCLEIC ACID COMPOSITIONS” (ModernaTX, Inc., priority 2011, published 2020):

Assays:
[1] = system: Neutrophil and reticulocyte count; test: Non-human primate hematology: neutrophil and reticulocyte count, hemoglobin, hematocrit, red blood cells; format: in vivo, cynomolgus monkey; conditions: for Female NHP Neutrophils: Table 39
Protocol: (§1) LNP formulations, shown in Table 31 (above), were administered to non-human primates (NHP) (cynomolgus monkey) (n=2) as intravenous injection (IV). The NHP were administered a single modified mRNA IV dose of 0.5 mg/kg, 0.05 mg/kg or 0.005 mg/kg of G-CSF or EPO in a dose volume of 0.5 mL/kg. The NHPs were bled before dosing with the modified mRNA LNP formulations to determine protein expression in the serum and a baseline complete blood count. After administration with the G-CSF modified mRNA formulation the NHP were bled at 8, 24, 48 and 72 hours to determined protein expression. After administration with the EPO modified mRNA formulation the NHP were bled at 8, 24, 48, 72 hours and 7 days to determined protein expression.
(§2) Samples collected from the NHPs after they were administered with G-CSF or EPO modified mRNA formulations were analyzed by ELISA to determine protein expression. Neutrophil and reticulocyte count was also determined pre-dose, 24 hours, 3 days, 7 days, 14 days and 18 days after administration of the modified G-CSF or EPO formulation.

[2] = Human G-CSF modified RNA lipoplex I.M., S.C., I.V., serum human G-CSF ELISA 6 hours; format: in vivo, C57/BL6 mice; conditions: lipoplexed 30% RNAIMAX
Protocol: 6 hours after administration of a formulation, serum was collected from each mouse to measure the amount of human G-CSF protein in the mouse serum by human G-CSF ELISA and the results are shown in Table 54.

[3] = system: IFN-alpha; test: Cytokine study PBMC, IFN-alpha production ELISA; format: cell-based; conditions: human PBMC, Lipofectamine 2000
Protocol: The plates were then incubated at 37 C.
Each condition was done in duplicate
Shown in Tables 69 and 70 are the average from 2 separate PBMC donors of the G-CSF and IFN-alpha production over time as measured by specific ELISA.

[4] = Non-human primate in vivo study for G-CSF and EPO, serum protein by ELISA; parameters: species or system cynomolgus monkey
Protocol: (§3) Formulations, listed in Table 31, were characterized by particle size, zeta potential, and encapsulation.
as §1, §2

[5] = LNP in vivo study IV, IM, SC, serum G-CSF or EPO by ELISA; conditions: rats, 0.05 mg/kg
Protocol: as §3
LNP formulations, shown in Table 31 (above), were administered to rats (n=5) intravenously (IV), intramuscularly (IM) or subcutaneously (SC) at a single modified mRNA dose of 0.05 mg/kg. A control group of rats (n=4) was untreated. The rats were bled at 2 hours, 8 hours, 24 hours, 48 hours and 96 hours and after they were administered with G-CSF or EPO modified mRNA formulations to determine protein expression using ELISA. The rats administered EPO modified mRNA intravenously were also bled at 7 days.

[6] = LNP formulations in mice, serum G-CSF or EPO by ELISA; format: in vivo; conditions: mice IV; for time out to which protein expression was detectable: LNP
Protocol: as §3
LNP formulations, shown in Table 31 (above), were administered to mice (n=4) intravenously (IV) at a single modified mRNA dose 0.05 mg/kg or 0.005 mg/kg. There was also 3 control groups of mice (n=4) that were untreated. The mice were bled at 2 hours, 8 hours, 24 hours, 48 hours and 72 hours after they were administered with G-CSF or EPO modified mRNA formulations to determine the protein expression. Protein expression of G-CSF and EPO were determined using ELISA.

[7] = Female NHP, 0.5 mg/kg, 24 hours

B1: G-CSF: human G-CSF mRNA, SEQ ID NO: 6, polyA about 160 nt, Cap1, fully modified with 5-methylcytosine and pseudouridine (nucleic acid, listed as Homo sapiens)
chain: GGGAAAUAAGAGAGAAAAGAAGAGUAAGAAGAAAUAUAAGAGCCACCAUGGCCGGUCCCGCGACCCAAAGCCCCAUGAAACUUAUGGCCCUGCAGUUGCUGCUUUGGCACUCGGCCCUCUGGACAGUCCAAGAAGCGACUCCUCUCGGACCUGCCUCAUCGUUGCCGCAGUCAUUCCUUUUGAAGUGUCUGGAGCAGGUGCGAAAGAUUCAGGGCGAUGGAGCCGCACUCCAAGAGAAGCUCUGCGCGACAUACAAACUUUGCCAUCCCGAGGAGCUCGUACUGCUCGGGCACAGCUUGGGGAUUCCCUGGGCUCCUCUCUCGUCCUGUCCGUCGCAGGCUUUGCAGUUGGCAGGGUGCCUUUCCCAGCUCCACUCCGGUUUGUUCUUGUAUCAGGGACUGCUGCAAGCCCUUGAGGGAAUCUCGCCAGAAUUGGGCCCGACGCUGGACACGUUGCAGCUCGACGUGGCGGAUUUCGCAACAACCAUCUGGCAGCAGAUGGAGGAACUGGGGAUGGCACCCGCGCUGCAGCCCACGCAGGGGGCAAUGCCGGCCUUUGCGUCCGCGUUUCAGCGCAGGGCGGGUGGAGUCCUCGUAGCGAGCCACCUUCAAUCAUUUUUGGAAGUCUCGUACCGGGUGCUGAGACAUCUUGCGCAGCCGUGAAGCGCUGCCUUCUGCGGGGCUUGCCUUCUGGCCAUGCCCUUCUUCUCUCCCUUGCACCUGUACCUCUUGGUCUUUGAAUAAAGCCUGAGUAGGAAG
modifications: Cap1; polyA; 5-methylcytosine, pseudouridine
[1]; Female NHP, 0.005 mg/kg, 14/18 days
  Hematocrit (HCT): 0.42 L/L
[1]; Female NHP, 0.005 mg/kg, 24 hours
  Hematocrit (HCT): 0.42 L/L
[1]; Female NHP, 0.005 mg/kg, 3 days
  Hematocrit (HCT): 0.41 L/L
[1]; Female NHP, 0.005 mg/kg, 7 days
  Hematocrit (HCT): 0.42 L/L
[1]; Female NHP, 0.005 mg/kg, Pre-dose
  Hematocrit (HCT): 0.42 L/L
[1]; Female NHP, 0.05 mg/kg, 14/18 days
  Hematocrit (HCT): 0.4 L/L
[1]; Female NHP, 0.05 mg/kg, 24 hours
  Hematocrit (HCT): 0.4 L/L
[1]; Female NHP, 0.05 mg/kg, 3 days
  Hematocrit (HCT): 0.39 L/L
[1]; Female NHP, 0.05 mg/kg, 7 days
  Hematocrit (HCT): 0.4 L/L
[1]; Female NHP, 0.05 mg/kg, Pre-dose
  Hematocrit (HCT): 0.44 L/L
[1]; Female NHP, 0.5 mg/kg, 14/18 days
  Hematocrit (HCT): 0.37 L/L
[1]; [7]
  Hematocrit (HCT): 0.38 L/L
  Red Blood Cells (RBC): 4.95 10^12/L
[1]; Female NHP, 0.5 mg/kg, 3 days
  Hematocrit (HCT): 0.38 L/L
[1]; Female NHP, 0.5 mg/kg, 7 days
  Hematocrit (HCT): 0.38 L/L
[1]; Female NHP, 0.5 mg/kg, Pre-dose
  Hematocrit (HCT): 0.43 L/L
[1]; Male NHP, 0.005 mg/kg, 14/18 days
  Hematocrit (HCT): 0.41 L/L
[1]; Male NHP, 0.005 mg/kg, 24 hours
  Hematocrit (HCT): 0.4 L/L
[1]; Male NHP, 0.005 mg/kg, 3 days
  Hematocrit (HCT): 0.4 L/L
[1]; Male NHP, 0.005 mg/kg, 7 days
  Hematocrit (HCT): 0.39 L/L
[1]; Male NHP, 0.005 mg/kg, Pre-dose
  Hematocrit (HCT): 0.42 L/L
[1]; Male NHP, 0.05 mg/kg, 14/18 days
  Hematocrit (HCT): 0.44 L/L
[1]; Male NHP, 0.05 mg/kg, 24 hours
  Hematocrit (HCT): 0.39 L/L
[1]; Male NHP, 0.05 mg/kg, 3 days
  Hematocrit (HCT): 0.41 L/L
[1]; Male NHP, 0.05 mg/kg, 7 days
  Hematocrit (HCT): 0.42 L/L
[1]; Male NHP, 0.05 mg/kg, Pre-dose
  Hematocrit (HCT): 0.44 L/L
[1]; Male NHP, 0.5 mg/kg, 14/18 days
  Hematocrit (HCT): 0.34 L/L
[1]; Male NHP, 0.5 mg/kg, 24 hours
  Hematocrit (HCT): 0.37 L/L
[1]; Male NHP, 0.5 mg/kg, 3 days
  Hematocrit (HCT): 0.39 L/L
  Red Blood Cells (RBC): 1.91 10^12/L
[1]; Male NHP, 0.5 mg/kg, 7 days
  Hematocrit (HCT): 0.39 L/L
[1]; Male NHP, 0.5 mg/kg, Pre-dose
  Hematocrit (HCT): 0.46 L/L
[1]; NHP IV LNP, all G-CSF groups
  neutrophils relative to pre-dose levels: increase in neutrophils
[1]; 0.005 mg/kg IV LNP, 14/18 days
  Female NHP Neutrophils: 0.057 10^12/L
[1]; 0.005 mg/kg IV LNP, 24 hours
  Female NHP Neutrophils: 0.07 10^12/L
[1]; 0.005 mg/kg IV LNP, 3 days
  Female NHP Neutrophils: 0 .054 10^12/L
[1]; 0.005 mg/kg IV LNP, 7 days
  Female NHP Neutrophils: 0.066 10^12/L
[1]; 0.005 mg/kg IV LNP, Pre-dose
  Female NHP Neutrophils: 0.06 10^12/L
[1]; 0.05 mg/kg IV LNP, 14/18 days
  Female NHP Neutrophils: 0.06 10^12/L
[1]; 0.05 mg/kg IV LNP, 24 hours
  Female NHP Neutrophils: 0.046 10^12/L
[1]; 0.05 mg/kg IV LNP, 3 days
  Female NHP Neutrophils: 0.061 10^12/L
[1]; 0.05 mg/kg IV LNP, 7 days
  Female NHP Neutrophils: 0.094 10^12/L
[1]; 0.05 mg/kg IV LNP, Pre-dose
  Female NHP Neutrophils: 0.049 10^12/L
[1]; 0.5 mg/kg IV LNP, 14/18 days
  Female NHP Neutrophils: 0.071 10^12/L
[1]; 0.5 mg/kg IV LNP, 24 hours
  Female NHP Neutrophils: 0.046 10^12/L
[1]; 0.5 mg/kg IV LNP, 3 days
  Female NHP Neutrophils: 0.017 10^12/L
[1]; 0.5 mg/kg IV LNP, 7 days
  Female NHP Neutrophils: 0.021 10^12/L
[1]; 0.5 mg/kg IV LNP, Pre-dose
  Female NHP Neutrophils: 0.055 10^12/L
[2]; 100 μg (Luc-unsp 150 μg), I. V.
  Human G-CSF in Serum: 31.0 pg/mL
[2]; 100 μg, S. C.
  Human G-CSF in Serum: 3.9 pg/mL
[3]
  innate immune recognition, cytokines (IFN-alpha): induced IFN-alpha, TNF-alpha and IP10
[4]; 0.005 mg/kg IV LNP, 24 hours
  Male NHP Serum G-CSF Concentration: <39 pg/mL
[4]; 0.005 mg/kg IV LNP, 48 hours
  Male NHP Serum G-CSF Concentration: <39 pg/mL
[4]; 0.005 mg/kg IV LNP, 72 hours
  Male NHP Serum G-CSF Concentration: <39 pg/mL
[4]; 0.005 mg/kg IV LNP, Pre-bleed
  Male NHP Serum G-CSF Concentration: <39 pg/mL
[4]; 0.05 mg/kg IV LNP, 8 hours
  Female NHP Serum G-CSF Concentration: 3,289 pg/ml
  Male NHP Serum G-CSF Concentration: 1,722 pg/ml
[4]; 0.05 mg/kg IV LNP, 24 hours
  Female NHP Serum G-CSF Concentration: 722 pg/mL
  Male NHP Serum G-CSF Concentration: 307 pg/mL
[4]; 0.05 mg/kg IV LNP, 48 hours
  Male NHP Serum G-CSF Concentration: <39 pg/mL
[4]; 0.05 mg/kg IV LNP, 72 hours
  Male NHP Serum G-CSF Concentration: <39 pg/mL
[4]; 0.05 mg/kg IV LNP, Pre-bleed
  Male NHP Serum G-CSF Concentration: <39 pg/mL
[4]; 0.5 mg/kg IV LNP, Pre-bleed, limit of detection 39 pg/ml
  Male NHP Serum G-CSF Concentration: <39 pg/mL
[4]; NHP IV, G-CSF LNP
  time beyond which protein expression was not detected: ≤ 72 h
[5]; intravenous
  time out to which protein expression was detectable: 7 days
[5]; subcutaneous and intramuscular
  time out to which protein expression was detectable: at least 8 hours
[6]; LNP NPA-030-2, 0.005 mg/kg, 2 hours
  G-CSF Serum Concentration: 3,447.8 pg/ml
[6]; LNP NPA-030-2, 0.005 mg/kg, 8 hours
  G-CSF Serum Concentration: 11,454.0 pg/ml
[6]; LNP NPA-030-2, 0.005 mg/kg, 24 hours
  G-CSF Serum Concentration: 4,960.2 pg/ml
[6]; LNP NPA-030-2, 0.005 mg/kg, 48 hours
  G-CSF Serum Concentration: 686.4 pg/mL
[6]; LNP NPA-030-2, 0.05 mg/kg, 2 hours
  G-CSF Serum Concentration: 20,951.4 pg/ml
[6]; LNP NPA-030-2, 0.05 mg/kg, 8 hours
  G-CSF Serum Concentration: 20,012.8 pg/ml
[6]; LNP NPA-030-2, 0.05 mg/kg, 24 hours
  G-CSF Serum Concentration: 19,356.2 pg/ml
[6]; LNP NPA-030-2, 0.05 mg/kg, 48 hours
  G-CSF Serum Concentration: 1,963.0 pg/ml
[6]; LNP NPA-030-2, 0.05 mg/kg, 72 hours
  G-CSF Serum Concentration: 47.3 pg/mL
[6]; 0.005 mg/kg
  time out to which protein expression was detectable: ≥ 48 h
[6]; 0.05 mg/kg
  time out to which protein expression was detectable: ≥ 72 h
